The source of these data is publication PMC8099640, “Collagen IV^α345 dysfunction in glomerular basement membrane diseases. III. A functional framework for α345 hexamer assembly” (The Journal of Biological Chemistry, 2021).

The target in data set [1] is recombinant α345 miniprotomer (human) (UniProt Q01955). The data set is described as follows: atomic force microscopy; miniprotomer 1 to 2 μg/ml deposited on mica from buffer with chloride, imaged dry, AC tapping mode in air.
Data set [2] concerns the molecule itself. The data set is described as follows: SEC; NC1 monomers alone or in equimolar mixture, 2 mg/ml in 25-mM Tris acetic acid buffer pH 7.5, NaCl added (150 mM), 24 h at 37 °C; Superdex 200 Increase 10/300GL in TBS; hexamer peak blotted with α3, α4 and α5 NC1-specific mAbs. (SEC sorts molecules by how far they enter the pores of the column.)

Turning to “recombinant α345 miniprotomer (from UniProt Q01955 29-1670; P53420 39-1690; P29400 27-1685) (complex)”, the stoichiometry N (usually the number of molecules, sites or subunits per partner or assembly) in data set [1] is 2.

B1: recombinant human collagen IV α5 NC1 monomer (domain or fragment, UniProt P29400 1461-1685, looked up)
chain: GFLITRHSQTTDAPQCPQGTLQVYEGFSLLYVQGNKRAHGQDLGTAGSCLRRFSTMPFMFCNINNVCNFASRNDYSYWLSTPEPMPMSMQPLKGQSIQPFISRCAVCEAPAVVIAVHSQTIQIPHCPQGWDSLWIGYSFMMHTSAGAEGSGQALASPGSCLEEFRSAPFIECHGRGTCNYYANSYSFWLATVDVSDMFSKPQSETLKAGDLRTRISRCQVCMKRT
notes: collagen IV α5 chain, NC1 domain, human; amplified by PCR from a human kidney cDNA library; Secreted by means of the BM-40 signal peptide of the vector (derivative of pRc-CMV)
Take B1: in data set [2], the “stoichiometry N” value stood at 6.
